The supplement of paper PMC7125110
± gives the standard error. For some assays here: This sample holds only a part of the variants without activity.

B1: glmS ribozyme (parent)
chain: AUAAAAGCGCCAGAACUACAGAAAUGUAGUUGACGAGGAGGAGGUUUAUCGAAUUUUCGGCGGAUGCCUCCAAA

Assays:
Settings in all cases: with glucosamine-6-phosphate
glucosamine-6-phosphate [1] = variants of: B1; assay: kcat; higher = faster cleavage; RNA array
Summary of the method: (§1)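 Tiles bearing barcoded ribozyme variants, transcribed in situ by E. coli RNA polymerase on sequenced MiSeq chips, were imaged over ~14 h at 37 °C using a hybridised Cy3 probe. Glucosamine-6-phosphate was supplied at 40 μM to 10 mM in HEPES/KCl/Mg(OAc)2 buffer. kobs came from one- or two-exponential decay fits to normalised per-tile medians, and weighted Michaelis–Menten fits then provided kcat and KM.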

glucosamine-6-phosphate [2] = variants of: B1; assay: self-cleavage kobs at 40 uM GlcN6P; higher = faster cleavage; RNA array
Summary of the method: as §1

glucosamine-6-phosphate [3] = variants of: B1; assay: self-cleavage kobs at 160 uM GlcN6P; higher = faster cleavage; RNA array
Summary of the method: as §1

glucosamine-6-phosphate [4] = variants of: B1; assay: KM; higher = weaker cofactor use; RNA array
Summary of the method: as §1

glucosamine-6-phosphate [5] = variants of: B1; assay: self-cleavage kobs at 640 uM GlcN6P; higher = faster cleavage; RNA array
Summary of the method: as §1

glucosamine-6-phosphate [6] = variants of: B1; assay: self-cleavage kobs at 2500 uM GlcN6P; higher = faster cleavage; RNA array
Summary of the method: as §1

glucosamine-6-phosphate [7] = variants of: B1; assay: self-cleavage kobs at 10000 uM GlcN6P; higher = faster cleavage; RNA array
Summary of the method: as §1

| Variant | kcat (glucosamine-6-phosphate [1]) [s⁻¹] | self-cleavage kobs at 40 uM GlcN6P (glucosamine-6-phosphate [2]) [s⁻¹] | self-cleavage kobs at 160 uM GlcN6P (glucosamine-6-phosphate [3]) [s⁻¹] | KM (glucosamine-6-phosphate [4]) [µM] | self-cleavage kobs at 640 uM GlcN6P (glucosamine-6-phosphate [5]) [s⁻¹] | self-cleavage kobs at 2500 uM GlcN6P (glucosamine-6-phosphate [6]) [s⁻¹] | self-cleavage kobs at 10000 uM GlcN6P (glucosamine-6-phosphate [7]) [s⁻¹] |
| --- | --- | --- | --- | --- | --- | --- | --- |
| G7A A15G U54G | 3.72e-05 ± 1.5e-05 | < 1e-05 | < 1e-05 | – | – | – | – |
| U46A C61A | 1.2e-05 ± 3e-07 | – | – | 1800 ± 100 | – | – | – |
| A6G U55A | 0.00056 ± 6.3e-05 | – | 5.94e-05 ± 1.2e-05 | 1630 ± 370 | 0.000143 ± 1.7e-05 | 0.000388 ± 4.1e-05 | 0.000463 ± 4.3e-05 |
| G32A G59U | 1.15e-05 ± 1.2e-06 | – | – | 3350 ± 1300 | – | – | – |
| C16U G66U | 0.00129 ± 0.00016 | 3.86e-05 ± 7.8e-06 | 9.95e-05 ± 2e-05 | 1550 ± 340 | 0.000375 ± 4.5e-05 | 0.000956 ± 0.00011 | 0.00105 ± 0.00011 |
| G37A U65C | 0.000108 ± 1.4e-05 | – | – | 2300 ± 1100 | – | 6.65e-05 ± 1.7e-05 | 8.61e-05 ± 1.1e-05 |
| G51A G66C | < 1e-05 | – | – | 510 ± 240 | – | – | – |
| U54G U55C | 0.00147 ± 0.0003 | – | 0.00036 ± 8.1e-05 | 670 ± 280 | 0.000646 ± 9.5e-05 | 0.0012 ± 0.00027 | 0.00156 ± 0.00037 |
| C8A G37C | < 1e-05 | – | < 1e-05 | – | < 1e-05 | – | – |
| A14U G32C C71A | 3.18e-05 ± 4.6e-06 | < 1e-05 | – | – | – | – | 3.33e-05 ± 1.2e-05 |
| A12G G29A | 0.000356 ± 6.4e-05 | – | – | 7170 ± 1900 | 3.29e-05 ± 1e-05 | 8.7e-05 ± 1.7e-05 | 0.000213 ± 4.3e-05 |
| A39G A53G C67G | 0.00302 ± 0.001 | 0.000234 ± 7.2e-05 | 0.000647 ± 0.00024 | – | 0.00135 ± 0.00029 | 0.00536 ± 0.0012 | 0.00257 ± 0.00072 |
| C50A C58U | 1.33e-05 ± 5.8e-06 | – | – | – | < 1e-05 | – | – |
| G9A G37U C70G | 1.52e-05 ± 2.5e-06 | – | – | – | – | < 1e-05 | – |
| G43A A53C | 6.63e-05 ± 3.6e-06 | – | < 1e-05 | – | < 1e-05 | – | – |
| U30C U65G | 7.96e-05 ± 3.5e-06 | – | – | 1130 ± 230 | 3.09e-05 ± 1e-05 | 4.99e-05 ± 1.1e-05 | 7.23e-05 ± 6.6e-06 |
| U56G C58G | 0.000173 ± 4.6e-06 | – | – | 1800 ± 110 | 4.42e-05 ± 1e-05 | 0.000103 ± 1.4e-05 | 0.000145 ± 2.1e-05 |
| A12C A48G | 5.38e-05 ± 6.8e-06 | – | – | – | – | 4.26e-05 ± 1.2e-05 | 4.66e-05 ± 7.1e-06 |
| U57A C61G G62C A64G U65A G66U C67G U69C | 3.85e-05 ± 9.7e-06 | – | – | – | – | 4.83e-05 ± 2e-05 | – |
